Source: US20120156246A1

Molecular target: histidine tagged PSMGFR peptide (MUC1* extra cellular domain)
Experiment: SPR, histidine-tagged PSMGFR on 3.8% or 5.7% NTA SAM chip

Sequence of histidine tagged PSMGFR peptide (MUC1* extra cellular domain) (peptide, as listed by the source): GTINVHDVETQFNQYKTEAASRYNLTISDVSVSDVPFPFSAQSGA

“NM23-S120G (100% hexamer preparation) (from UniProt P15531 1-152) (ligand)” gave an SPR binding response (RUs) of 70 RU.
